{"source": "paper PMC5556061", "about": "(Scientific Reports, 2017)", "molecules": {"B1": {"name": "PTP-PEST-derived peptide, residues 327-343 (peptide part of the CAS-PTP-PEST chimera) (peptide, UniProt P35831 327-343, looked up)", "peptide": "EKQDSPPPKPPRTRSCL", "notes": "PTP-PEST, mouse, residues 327-343; Stood on one chain with the CAS SH3 domain: SH3 domain, spacer SGGSGSG, peptide; also called PTP-PEST peptide; PTP-PEST extended peptide; source: E. coli BL21 (DE3), as the C-terminal part of the CAS SH3 chimera, purified"}, "B2": {"name": "Vinculin-derived peptide, residues 854-870 (peptide part of the CAS-Vinculin chimera) (peptide, UniProt Q64727 854-870, looked up)", "peptide": "LTDELAPPKPPLPEGEV", "notes": "Vinculin, mouse, residues 854-870; Stood on one chain with the CAS SH3 domain: SH3 domain, spacer SGGSGSG, peptide; also called Vinculin peptide; Vinculin extended peptide; source: E. coli BL21 (DE3), as the C-terminal part of the CAS SH3 chimera, purified"}, "B3": {"name": "synthetic octapeptide APPKPPLP (binding site of CAS on Vinculin) (peptide)", "peptide": "APPKPPLP", "notes": "also called Vinculin core peptide (859-866); source: synthetic peptide"}, "B4": {"name": "GST-fused CAS SH3 domain (domain or fragment, mouse, UniProt Q61140 3-65, looked up)", "chain": "VPNVLAKALYDNVAESPDELSFRKGDIMTVLERDTQGLDGWWLCSLHGRQGIVPGNRLKILVG", "notes": "Crk-associated substrate (CAS), mouse, SH3 domain; also called GST-CAS SH3; GST-SH3; source: E. coli BL21 (DE3), pGEX-2TK, purified (glutathione agarose); not shown: GST, N-terminal, kept"}, "B5": {"name": "phage-displayed peptide clone 16 (AHTPPPKPTRPP) (peptide)", "peptide": "AHTPPPKPTRPP", "notes": "12-residue peptide selected from a degenerate library; also called phage clone 16; source: M13 phage stock (Ph.D.-12 Phage Display Peptide Library, New England Biolabs), selected by panning"}, "B6": {"name": "phage-displayed peptide clone 10 (TMTPPPKPPRLI) (peptide)", "peptide": "TMTPPPKPPRLI", "notes": "12-residue peptide selected from a degenerate library; also called phage clone 10; source: M13 phage stock (Ph.D.-12 Phage Display Peptide Library, New England Biolabs), selected by panning"}}, "key": {"[1]": {"test_system": "GST-fused CAS SH3 domain", "test": "Competitive displacement phage ELISA (EC50)", "format": "binding, mouse", "description": "The EC50 for phage clone 1 ([…], highest affinity) was determined using competitive displacement of the phage bound (5.5·10^10 pfu) to immobilized GST-fused CAS SH3 domain (100 µl of 20 µg/ml per well to yield the best specificity/sensitivity ratio) by serial additions of free GST-fused CAS SH3 domain in TBST (1 µg/ml–800 µg/ml) as previously described. The amount of bound phages was assessed with anti-M13 antibody conjugated to HRP and quantified in a colorimetric assay. Displacement curves were fitted to standard sigmoidal function and EC50 was calculated in Sigmaplot version 11 software using a four-parameter logistic equation. Statistical significance (*p < 0.05, **p < 0.01, ***p < 0.001) was determined on log-transformed data by one-way ANOVA followed by Tukey’s post-hoc test."}, "[2]": {"test_system": "CAS SH3 Y12E", "test": "Phage ELISA with CAS SH3 variants", "format": "binding, mouse", "conditions": "immobilized 5 µg of CAS SH3 variant per well, three independent experiments", "description": "The relative binding affinities of individual phage clones to GST-CAS SH3 were assessed by ELISA according to the manufacturer’s protocol (Ph.D.™ −12 Phage Display Peptide Library Kit, New England Biolabs). Briefly, a dilution series of phage stocks was prepared in TBS with 0.5% Tween 20 (TBST, 10^15−2 × 10^6 pfu/ml), and phages were scored for their ability to bind immobilized GST-CAS SH3 domain (100 µl of 50 µg/ml per well) in 96-well plate. Bound phages were detected with anti-M13 antibody conjugated to HRP and quantified in a colorimetric assay (ABTS at 415 nm, Invitrogen) using Varioskan Flash (Thermo Scientific). Relative binding affinities (the affinity of the phage clone with the highest affinity was arbitrarily set to 1) were evaluated based on the number of phages required to bind the immobilized GST-fused CAS SH3 domain at 50% saturation. Curves were fitted with the standard sigmoidal function in Sigmaplot. The clones with highest affinities were selected for further analyses (e.g., binding to immobilized 5 µg of CAS SH3 variants per well)."}, "[3]": {"test_system": "Src kinase", "test": "Co-immunoprecipitation of FAK and Vinculin with CAS after Src inhibition", "format": "cell-based, mouse", "conditions": "MEFs SrcF treated with 5 µM Saracatinib for 3 h, Vinculin immunoblot", "description": "Immunoprecipitations from lysates of MEFs or MEFs transformed with SrcF were performed similarly as described above. To immunoprecipitate CAS proteins, protein-A sepharose (GE-Healthcare) and anti-CAS antibody (BD Transduction Laboratories) were used. […] After transferring proteins onto nitrocellulose membrane and blocking, the membranes were incubated with anti CAS, Src, FAK, Vinculin, CAS Tyr12, CAS pTyr165, Src pTyr418 or actin antibody."}, "[4]": {"molecular_target": "T1, CAS SH3 domain (GST tag removed, for NMR) (mouse, UniProt Q61140 3-65)", "T1 construct": "Crk-associated substrate (CAS), mouse, SH3 domain; Two additional residues remained at the N-terminus after thrombin cleavage; In the two chimeras this domain carried, on the same chain, the spacer SGGSGSG and the peptide m17 or m18 at its C-terminus; also called free CAS SH3 domain; source: E. coli BL21 (DE3), 15N/13C-labelled, purified (glutathione agarose, thrombin cleavage, size exclusion); …", "T1 sequence (looked up)": "B4 chain", "test": "NMR solution structure; chimeras: peptide fused through a Gly/Ser-rich linker to the C-terminus of the CAS SH3 domain; 450 µM; 25 °C; 25 mM sodium phosphate pH 7.5, 100 mM NaCl, 1 mM TCEP", "conditions": "both partners purified"}, "[5]": {"molecular_target": "T2, CAS SH3 (as used for ITC) (mouse, UniProt Q61140 3-65)", "T2 construct": "Crk-associated substrate (CAS), mouse, SH3 domain; probably the same protein as m2; source: E. coli BL21 (DE3), purified", "T2 sequence (looked up)": "B4 chain", "test": "ITC; 660 µM peptide injected into 60 µM CAS SH3; 25 °C; PBS pH 7.5, 0.05% 2-mercaptoethanol", "conditions": "both partners purified"}, "[6]": {"molecular_target": "T3, phage-displayed peptide clone 1 (FHAPPSKPPLPK)", "T3 construct": "12-residue peptide selected from a degenerate library; also called phage clone 1; source: M13 phage stock (Ph.D.-12 Phage Display Peptide Library, New England Biolabs), selected by panning", "T3 peptide": "FHAPPSKPPLPK", "test": "ELISA; competitive displacement of phage clone 1 (5.5·10^10 pfu) bound to immobilised GST-CAS SH3 (100 µl of 20 µg/ml per well) by free GST-CAS SH3 in TBST (1-800 µg/ml); anti-M13-HRP", "conditions": "one partner purified"}, "[7]": {"molecular_target": "T4, GST-fused CAS SH3 domain Y12F (mouse, UniProt Q61140 3-65, Y12F)", "T4 construct": "Crk-associated substrate (CAS), mouse, SH3 domain with Y12F; also called CAS SH3 Y12F mutant; source: E. coli BL21 (DE3), pGEX-2TK, purified (glutathione agarose); not shown: GST, N-terminal, kept", "T4 sequence (looked up)": "B4 chain with Y10F", "test": "ELISA; phage ELISA: GST-CAS SH3 domain or its variants immobilised in 96-well plate (100 µl of 50 µg/ml; 5 µg per well), dilution series of phage stocks in TBS with 0.5% Tween 20, anti-M13-HRP; relative affinities from phage number at 50% saturation", "conditions": "one partner purified"}}, "note": "Changes are numbered by the printed parent chain."}
{"molecule": "FHAPPSKPPLPK [clone 1]", "values": [{"measurement": "fold higher affinity than reported for CAS SH3 with FAK-derived peptide", "setting": "[1]; EC50 of clone 1 compared with previously reported value", "value": "~6", "unit": "fold"}, {"measurement": "EC50", "setting": "[1]; displacement of bound phage (5.5·10^10 pfu) from immobilized GST-CAS SH3 (100 µl of 20 µg/ml per well) by free GST-fused CAS SH3 (1-800 µg/ml) in TBST, anti-M13-HRP, colorimetric, seven independent experiments, read-out: EC50 for clone 1 binding", "value": 0.363, "unit": "µM"}]}
{"molecule": "TMTPPPKPPRLI [clone 10]", "values": [{"measurement": "effect of Y12E mutation on ligand binding", "setting": "[2]", "value": "complete disruption of ligand binding"}]}
{"molecule": "CN1CCN(CCOc2cc(OC3CCOCC3)c3c(Nc4c(Cl)ccc5c4OCO5)ncnc3c2)CC1", "note": "[Saracatinib]", "values": [{"measurement": "binding of CAS to Vinculin", "setting": "[3]", "value": "restored the binding of CAS to Vinculin to a similar level as in MEFs"}]}
{"molecule": "AHTPPPKPTRPP [clone 16]", "values": [{"measurement": "effect of Y12E mutation on ligand binding", "setting": "[2]", "value": "complete disruption of ligand binding"}]}
{"molecule": "B1", "values": [{"measurement": "binding result", "setting": "[4]", "value": "binds"}]}
{"molecule": "B2", "values": [{"measurement": "binding result", "setting": "[4]", "value": "binds"}]}
{"molecule": "B3", "values": [{"measurement": "Kd", "setting": "[5]", "value": 15.7, "unit": "µM"}, {"measurement": "stoichiometry N", "setting": "[5]", "value": 1}]}
{"molecule": "B4", "values": [{"measurement": "EC50", "setting": "[6]", "value": 0.363, "unit": "µM"}]}
{"molecule": "PPPKPPRL (source: synthetic peptide)", "note": "[synthetic octapeptide PPPKPPRL]", "values": [{"measurement": "Kd", "setting": "[5]", "value": 5.29, "unit": "µM"}, {"measurement": "stoichiometry N", "setting": "[5]", "value": 1}]}
{"molecule": "B5", "values": [{"measurement": "fold decrease in affinity against CAS WT", "setting": "[7]", "value": 37, "unit": "fold"}]}
{"molecule": "PPSKPPRP (source: synthetic peptide)", "note": "[synthetic octapeptide PPSKPPRP]", "values": [{"measurement": "Kd", "setting": "[5]", "value": 15.3, "unit": "µM"}, {"measurement": "stoichiometry N", "setting": "[5]", "value": 1}]}
{"molecule": "PPSKPPLP (source: synthetic peptide)", "note": "[synthetic octapeptide PPSKPPLP]", "values": [{"measurement": "Kd", "setting": "[5]", "value": 46.6, "unit": "µM"}, {"measurement": "stoichiometry N", "setting": "[5]", "value": 1}]}
{"molecule": "B6", "values": [{"measurement": "fold decrease in affinity against CAS WT", "setting": "[7]", "value": 2, "unit": "fold"}]}
